# Assay results as given in paper PMC8769072, “Proteome‐scale mapping of binding sites in the unstructured regions of the human proteome” (Molecular Systems Biology, 2022).
# T1: TLN1 PTB, tag cleaved, for affinity measurements (human)
# T1 chain: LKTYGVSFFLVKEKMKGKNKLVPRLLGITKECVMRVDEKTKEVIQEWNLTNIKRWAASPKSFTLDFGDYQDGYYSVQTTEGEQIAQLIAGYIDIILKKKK
# T2: 14‐3‐3 SFN, tag cleaved, for affinity measurements (human)
# T2 chain: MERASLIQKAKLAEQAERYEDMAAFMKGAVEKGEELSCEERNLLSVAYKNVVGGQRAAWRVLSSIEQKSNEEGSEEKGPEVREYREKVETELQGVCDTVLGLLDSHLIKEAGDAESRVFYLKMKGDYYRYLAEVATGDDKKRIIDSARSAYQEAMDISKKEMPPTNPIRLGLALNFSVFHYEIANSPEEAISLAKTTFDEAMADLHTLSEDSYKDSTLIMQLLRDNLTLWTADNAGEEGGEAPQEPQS
# B1: ITB3_(763–778) peptide from integrin beta‐3, synthetic (peptide)
# peptide: AKWDTANNPLYKEATS
# notes: integrin beta-3, human, residues 763-778; source: synthetic peptide, bought: GeneCust
# B2: MAP1A_(1836–1851) peptide, synthetic (peptide)
# peptide: PSWLADIPPWVPKDRP
# notes: microtubule-associated protein 1A, human, residues 1836-1851; source: synthetic peptide, bought: GeneCust
# B3: PTTG1_(4–19) peptide from securin, synthetic (peptide, UniProt O95997 4-19, looked up)
# peptide: LIYVDKENGEPGTRVV
# notes: securin, human, residues 4-19 (NGE containing); source: synthetic peptide, bought: GeneCust
# How the values were obtained:
# Assay in all cases: fluorescence polarisation; competition: unlabelled peptide in serial dilution displaces a FITC-labelled probe peptide from the bait domain (master mix with protein at four times the KD of the probe, 10 nM probe, 2 mM DTT); 50 mM KPO4 or NaPO4 pH 7.5; triplicates; probe for KEAP1 Kelch: FITC-NFE2L1 228-243, other probes in Dataset EV6
# Details in all cases: both partners purified
# [1] = molecular target: T1, TLN1 PTB, tag cleaved, for affinity …
# [2] = molecular target: KEAP1 Kelch, MBP‐tagged domain, for affinity measurements (human)
# [3] = molecular target: T2, 14‐3‐3 SFN, tag cleaved, for affinity …
# KEAP1 Kelch, MBP‐tagged domain, for affinity measurements (human), sequence (chain, as listed by the source): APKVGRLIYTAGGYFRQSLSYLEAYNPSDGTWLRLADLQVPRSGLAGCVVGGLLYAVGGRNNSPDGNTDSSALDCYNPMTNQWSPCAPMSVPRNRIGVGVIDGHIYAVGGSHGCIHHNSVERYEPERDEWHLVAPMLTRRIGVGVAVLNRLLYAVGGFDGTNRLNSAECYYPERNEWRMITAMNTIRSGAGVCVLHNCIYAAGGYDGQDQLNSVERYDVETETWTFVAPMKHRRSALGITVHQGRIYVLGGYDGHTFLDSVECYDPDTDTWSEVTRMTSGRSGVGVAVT
binder,measurement,setting,value
B1,Ki,[1],500 µM
"Ac-YDEEKGEFLPIQPAQH-NH2 [NFE2L2 T80K peptide, synthetic]",fold loss of affinity against the wild-type peptide,[2],1000 fold
B2,Ki,[3],355 µM
B3,Ki,[2],1 µM
"Ac-YDEKTGEFLPIQPAQH-NH2 [NFE2L2 E79K peptide, synthetic]",fold loss of affinity against the wild-type peptide,[2],1000 fold
